Results reported in US20240150489A1.

What was measured:
[1] = molecular target: CD38 on Raji-CD47KO cells (human) (UniProt P28907); test: flow cytometry dot plot, Raji-CD47KO cells, saturating Darzalex-AF647 alone; other quadrants printed Q1 0, Q2 0, Q4 0.23
[2] = molecular target: CD38 on Raji-CD47KO cells (human) (UniProt P28907); test: flow cytometry dot plot, Raji-CD47KO cells, mix of saturating Darzalex-AF647 and BEAT 38/47-60-AF488; other quadrants printed Q1 0.070, Q3 0.21, Q4 0.035

Darzalex (antibody)
percent of cells in quadrant Q3 (AF647 positive, AF488 negative) [1]: 99.8% | percent of cells in quadrant Q2 (AF488 and AF647 double positive) [2]: 99.7%
